The values that follow come from patent US20180185464A1.

This test addresses human DC-SIGN (human) (UniProt Q9NNX6). Description: cell-based or functional assay.
Sequence of UniProt Q9NNX6 (Q9NNX6 whole entry): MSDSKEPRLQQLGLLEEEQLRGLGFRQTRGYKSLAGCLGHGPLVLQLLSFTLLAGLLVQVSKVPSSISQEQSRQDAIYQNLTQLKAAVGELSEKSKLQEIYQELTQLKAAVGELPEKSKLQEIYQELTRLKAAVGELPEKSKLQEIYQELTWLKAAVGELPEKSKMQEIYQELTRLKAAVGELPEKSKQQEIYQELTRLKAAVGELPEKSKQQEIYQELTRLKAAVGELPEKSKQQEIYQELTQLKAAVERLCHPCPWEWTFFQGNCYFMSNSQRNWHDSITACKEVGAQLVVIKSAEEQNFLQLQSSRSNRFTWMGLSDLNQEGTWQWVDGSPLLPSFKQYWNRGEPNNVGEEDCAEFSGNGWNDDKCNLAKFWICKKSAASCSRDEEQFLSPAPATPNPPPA

As for histidine tagged gp120 (gp120-6his), the Internalisation (MFI) DC-SIGN transgenic CD11c+ cells, PBS wash; liposomes engrafted with gp120-6his 27.43 µg/mL, 37 C (unengrafted 74.3) turned out to be 118 and the Internalisation (MFI) DC-SIGN transgenic CD11c+ cells, imidazole wash; liposomes engrafted with gp120-6his 27.43 µg/mL, 37 C (unengrafted 77.2) turned out to be 126.

Substance “histidine-tagged FliC (FliC-6his) (from UniProt P06179 2-495) (ligand)” yielded an Internalisation (MFI) DC-SIGN transgenic CD11c+ cells, PBS wash; liposomes engrafted with FliC-6his 23.04 µg/mL, 37 C (unengrafted 74.3) of 70.8 and an Internalisation (MFI) DC-SIGN transgenic CD11c+ cells, imidazole wash; liposomes engrafted with FliC-6his 23.04 µg/mL, 37 C (unengrafted 77.2) of 79.2.
